Results on 12 molecules are retold here after article PMC5842622, “The Entamoeba histolytica TBP and TRF1 transcription factors are GAAC-box binding proteins, which display differential gene expression under different stress stimuli and during the interaction with ma”.

First the molecules themselves.
T1: rEhTBP (TATA-box binding protein) (Entamoeba histolytica, UniProt P52653 1-234)
T1 sequence: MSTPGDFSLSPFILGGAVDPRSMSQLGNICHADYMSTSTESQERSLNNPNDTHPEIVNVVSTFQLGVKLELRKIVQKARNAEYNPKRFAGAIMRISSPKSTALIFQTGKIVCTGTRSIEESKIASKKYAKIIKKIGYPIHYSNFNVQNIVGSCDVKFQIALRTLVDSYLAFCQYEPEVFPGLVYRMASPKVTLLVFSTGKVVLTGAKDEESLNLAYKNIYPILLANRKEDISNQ

T2: rEhTRF1 (TBP-related factor 1) (Entamoeba histolytica, UniProt A7UFC2 1-216)
T2 sequence: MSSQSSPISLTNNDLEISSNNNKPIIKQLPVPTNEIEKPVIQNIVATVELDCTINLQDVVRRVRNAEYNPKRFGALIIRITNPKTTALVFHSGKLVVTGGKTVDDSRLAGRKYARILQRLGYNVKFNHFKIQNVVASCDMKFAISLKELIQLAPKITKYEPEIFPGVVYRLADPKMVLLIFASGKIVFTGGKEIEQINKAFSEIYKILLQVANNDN

B1: cAcTcAAA (8) (dsDNA)
DNA 1: AATTCTCCACTCAAAGAGAATT
DNA 2: AATTCTCTTTGAGTGGAGAATT
B2: TATTTAAA (1) (dsDNA)
DNA 1: AATTCTCTATTTAAAGAGAATT
DNA 2: AATTCTCTTTAAATAGAGAATT
B3: GAAC-box (wild type) (dsDNA)
DNA 1: AAGACAATGAACTAGAATG
DNA 2: CATTCTAGTTCATTGTCTT
B4: TATgTAAA (5) (dsDNA)
DNA 1: AATTCTCTATGTAAAGAGAATT
DNA 2: AATTCTCTTTACATAGAGAATT
B5: gAgTTAAA (6) (dsDNA)
DNA 1: AATTCTCGAGTTAAAGAGAATT
DNA 2: AATTCTCTTTAACTCGAGAATT
B6: TAgTgAAA (2) (dsDNA)
DNA 1: AATTCTCTAGTGAAAGAGAATT
DNA 2: AATTCTCTTTCACTAGAGAATT
B7: TAcTcAAA (7) (dsDNA)
DNA 1: AATTCTCTACTCAAAGAGAATT
DNA 2: AATTCTCTTTGAGTAGAGAATT
B8: TATTTttt (10) (dsDNA)
DNA 1: AATTCTCTATTTTTTGAGAATT
DNA 2: AATTCTCAAAAAATAGAGAATT
B9: TATTaAAA (4) (dsDNA)
DNA 1: AATTCTCTATTAAAAGAGAATT
DNA 2: AATTCTCTTTTAATAGAGAATT
B10: cAcTTAAA (9) (dsDNA)
DNA 1: AATTCTCCACTTAAAGAGAATT
DNA 2: AATTCTCTTTAAGTGGAGAATT
B11: TATTggAA (3) (dsDNA)
DNA 1: AATTCTCTATTGGAAGAGAATT
DNA 2: AATTCTCTTCCAATAGAGAATT
B12: GAAC-like box (dsDNA)
DNA 1: AGGCGAACTACAAAAGAT
DNA 2: ATCTTTTGTAGTTCGCCT

A word on the Kd: it is the free concentration of one partner at which half of the binding sites on the other are occupied at equilibrium, for simple one-to-one binding.

The target of the first data set is T1, rEhTBP (TATA-box binding protein). Put plainly: EMSA; 4 C, 1 mM MgCl2; EMSA: 12 mM Hepes pH 7.9, 60 mM KCl, 1 mM each DTT, EDTA, spermidine and MgCl2, 10% glycerol, poly(dG-dC) 1 ug/ul, 10 min at 4 C; probe 557 pM (TATA), 64 pM (GAAC) or 82 pM (GAAC-like). The following applies: protein: recombinant; tags: His tag; label: 5'-32P; blunt. For orientation: In EMSA bound probe runs differently from free probe, usually more slowly.
As for B1, the Kd came to 0.038 nM.
For the molecule B2, the Kd worked out at 0.0207 nM.
In the case of B3, the Kd was found to be 0.019 nM.
On the same count and under the same terms, with B4 the figure was 0.00169 nM.
On to B5, for which the Kd came to 0.00473 nM.
Still for that read-out and setting: with B6 the figure was 0.0398 nM.
On to B7, for which the Kd came out at 0.00276 nM.
In the case of B8, the Kd came to 0.0034 nM.
Still for that read-out and setting: the value for B9 was 0.00485 nM.
B10: the binding result was “no binding”.
Turning to B11, the Kd stood at 0.0357 nM.

A further data set has as its target T2, rEhTRF1 (TBP-related factor 1). Described as above. The following applies: protein: recombinant; tags: His tag; label: 5'-32P; blunt.
As for B1, the Kd worked out at 0.0308 nM.
On to B2, for which the Kd amounted to 0.0529 nM.
Still for that read-out and setting: with B3 the figure was 0.0794 nM; with B4, 0.00674 nM.
On the same count and under the same terms, the value for B5 was 0.00685 nM.
Turning to B6, the Kd was 0.013 nM.
Same read-out and setting: with B7 the figure was 0.0298 nM; with B8, 0.0254 nM.
Same read-out and setting: with B9 the figure was 0.00398 nM; with B10, 0.00972 nM.
For the molecule B11, the Kd is 0.0135 nM.

The target is the same in the next data set. Description: EMSA; specifically competed; EMSA: 12 mM Hepes pH 7.9, 60 mM KCl, 1 mM each DTT, EDTA, spermidine and MgCl2, 10% glycerol, poly(dG-dC) 1 ug/ul, 10 min at 4 C; probe 557 pM (TATA), 64 pM (GAAC) or 82 pM (GAAC-like). The following applies: protein: recombinant; tags: His tag; label: 5'-32P; blunt.
As for B12, the binding result was “binds”.

Another data set concerns the target T1, rEhTBP (TATA-box binding protein). Put plainly: EMSA; complex barely competed by specific competitor; EMSA: 12 mM Hepes pH 7.9, 60 mM KCl, 1 mM each DTT, EDTA, spermidine and MgCl2, 10% glycerol, poly(dG-dC) 1 ug/ul, 10 min at 4 C; probe 557 pM (TATA), 64 pM (GAAC) or 82 pM (GAAC-like). As to conditions: protein: recombinant; tags: His tag; label: 5'-32P; blunt.
B12: the binding result was “binds”.
